For assay [1], the target named is T1, huZIP12-ECD-GST (human, UniProt Q504Y0 24-202).
T1 construct: also called hZIP12-ECD-GST; human ZIP12-ECD-GST; not shown: glutathione S-transferase (GST) tag
In words: SPR single cycle kinetics (Biacore): mAb captured on protein A, huZIP12-ECD-GST injected at 3.12-800 nM. As to the method:
(§1) Single Cycle Kinetics (SCK) involves first capturing the mAb onto the protein A sensor surface and then sequentially injecting a series of concentrations of huZIP12-ECD-GST over the surface starting at the lowest concentration and ending with the highest concentration. The final concentration is followed by a dissociation phase where buffer only is passed across the surface followed by regeneration, where the remaining bound huZIP12-ECD-GST is removed from the surface by injection of a 10 mM Glycine pH 1.5 and 50 mM NaOH solution. The SCK is repeated for each monoclonal antibody providing duplicate data and the kinetics of each interaction is evaluated by the Biacore software.
Referring to FIG. 6, there are shown the kinetic parameters obtained for all antibody variants when screened with the 3.12 nM to 800 nM huZIP12-ECD-GST. […] Affinity.

Assay [2] addresses T1, huZIP12-ECD-GST. The experiment in a line: SPR single cycle kinetics (Biacore): mAb captured on protein A, huZIP12-ECD-GST injected at 2.34-600 nM, extended dissociation. As to the method: as §1
A selection of the higher affinity antibody variants were re-tested at a lower concentration series with an extended dissociation time with the objective of obtaining a better assessment of the binding kinetics. Referring now to FIG. 7, there are shown the data for the monoclonal antibodies that were re-tested to optimise the binding kinetic data. Once again, three antibody variants, H3_W99H_L1, H3_W99HL2 and H3_W99H_VL-par, all appear to have a higher affinity than the parent antibody. The on-rate (ka), off-rate (kd) and overall affinity measurement (KD) are all improved compared to the 51B12 VH_VL_par parent antibody.

The values that follow come from patent publication US20260109761A1 (IP2IPO INNOVATIONS, published 2026).

T1 sequence (Q504Y0 24-202): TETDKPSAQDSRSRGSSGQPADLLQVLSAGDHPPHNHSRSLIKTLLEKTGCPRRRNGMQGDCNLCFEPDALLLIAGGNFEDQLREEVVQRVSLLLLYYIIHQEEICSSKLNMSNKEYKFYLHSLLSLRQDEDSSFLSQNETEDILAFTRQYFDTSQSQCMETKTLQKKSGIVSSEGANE

B1: 51B12_VH_L1 (antibody, V domains shown)
VH: QVQLVESGGGVVQPGRSLRLSCAASGFTFSDYGMHWVRQAPGKGLEWVAYISSGGTTIYYADTVKGRFTISRDNSKNTLYLQMNSLRAEDTAVYYCARWTNLYAMDYWGQGTTVTVSS
VL: DIVLTQSPDSLAVSLGERATINCRASKSVSTQGYSYMHWYQQKPGQPPKFLIYLASNLESGVPDRFSGSGSGTDFTLTISSLQAEDVAVYYCQHSREVPYTFGGGTKVEIKR
notes: Fc null human IgG1 / human kappa
In the assay with huZIP12-ECD-GST [1], B1 showed a Kd of 0.963 nM, a koff of 2.83e-05 s⁻¹ and a kon of 29300 M⁻¹ s⁻¹.

B2: H2_T56H_L2 (antibody, V domains shown)
VH: QVQLVESGGGVVQPGRSLRLSCAASGFTFSDYGMHWVRQAPGKGLEWVAYISSGGHTIYYADTVKGRFTISRDNSKNTLYLQMNSLRAEDTAVYYCARWTNLYAMDYWGQGTTVTVSS
VL: DIVLTQSPDSLAVSLGERATINCRASKSVSTSGYSYMHWYQQKPGQPPKFLIYLASNKESGVPDRFSGSGSGTDFTLTISSLQAEDVAVYYCQHSREVPYTFGGGTKVEIKR
notes: as for B1
In the case of B2, in the assay with huZIP12-ECD-GST [1], the Kd is 1.61 nM, the koff worked out at 3.74e-05 s⁻¹ and the kon was found to be 23200 M⁻¹ s⁻¹.

B3: H2_G66Q_L2 (antibody, V domains shown)
VH: QVQLVESGGGVVQPGRSLRLSCAASGFTFSDYGMHWVRQAPGKGLEWVAYISSGGTTIYYADTVKQRFTISRDNSKNTLYLQMNSLRAEDTAVYYCARWTNLYAMDYWGQGTTVTVSS
VL: DIVLTQSPDSLAVSLGERATINCRASKSVSTSGYSYMHWYQQKPGQPPKFLIYLASNKESGVPDRFSGSGSGTDFTLTISSLQAEDVAVYYCQHSREVPYTFGGGTKVEIKR
notes: as for B1
Consider B3, for which, in the assay with huZIP12-ECD-GST [1], the affinity, expressed as Kd, was 1.17 nM; the koff was 3.42e-05 s⁻¹; the kon was found to be 29100 M⁻¹ s⁻¹. In the assay with huZIP12-ECD-GST [2], this molecule displayed a Kd of 1.2 nM, a koff of 3.59e-05 s⁻¹ and a kon of 30000 M⁻¹ s⁻¹.

B4: H2_G66Q_L1 (antibody, V domains shown)
VH: QVQLVESGGGVVQPGRSLRLSCAASGFTFSDYGMHWVRQAPGKGLEWVAYISSGGTTIYYADTVKQRFTISRDNSKNTLYLQMNSLRAEDTAVYYCARWTNLYAMDYWGQGTTVTVSS
VL: DIVLTQSPDSLAVSLGERATINCRASKSVSTQGYSYMHWYQQKPGQPPKFLIYLASNLESGVPDRFSGSGSGTDFTLTISSLQAEDVAVYYCQHSREVPYTFGGGTKVEIKR
notes: as for B1
For B4, in the assay with huZIP12-ECD-GST [1], the Kd amounted to 0.968 nM, the koff was 3.34e-05 s⁻¹ and the kon was 34600 M⁻¹ s⁻¹.

B5: H3_M105P_L1 (antibody, V domains shown)
VH: QVQLVESGGGVVQPGRSLRLSCAASGFTFSDYGMHWVRQAPGKGLEWVAYISSGGTTIYYADTVKGRFTISRDNSKNTLYLQMNSLRAEDTAVYYCARWTNLYAPDYWGQGTTVTVSS
VL: DIVLTQSPDSLAVSLGERATINCRASKSVSTQGYSYMHWYQQKPGQPPKFLIYLASNLESGVPDRFSGSGSGTDFTLTISSLQAEDVAVYYCQHSREVPYTFGGGTKVEIKR
notes: as for B1
Consider B5, for which, in the assay with huZIP12-ECD-GST [1], the Kd amounted to 1.55 nM, the koff came out at 4.35e-05 s⁻¹ and the kon is 28100 M⁻¹ s⁻¹.

B6: 51B12_VH_L2 (antibody, V domains shown)
VH: QVQLVESGGGVVQPGRSLRLSCAASGFTFSDYGMHWVRQAPGKGLEWVAYISSGGTTIYYADTVKGRFTISRDNSKNTLYLQMNSLRAEDTAVYYCARWTNLYAMDYWGQGTTVTVSS
VL: DIVLTQSPDSLAVSLGERATINCRASKSVSTSGYSYMHWYQQKPGQPPKFLIYLASNKESGVPDRFSGSGSGTDFTLTISSLQAEDVAVYYCQHSREVPYTFGGGTKVEIKR
notes: as for B1
Turning to B6, in the assay with huZIP12-ECD-GST [1], binding was characterised by a dissociation constant (Kd) of 1.12 nM, the koff came out at 2.86e-05 s⁻¹ and the kon is 25600 M⁻¹ s⁻¹.

B7: H2_T56H_L1 (antibody, V domains shown)
VH: QVQLVESGGGVVQPGRSLRLSCAASGFTFSDYGMHWVRQAPGKGLEWVAYISSGGHTIYYADTVKGRFTISRDNSKNTLYLQMNSLRAEDTAVYYCARWTNLYAMDYWGQGTTVTVSS
VL: DIVLTQSPDSLAVSLGERATINCRASKSVSTQGYSYMHWYQQKPGQPPKFLIYLASNLESGVPDRFSGSGSGTDFTLTISSLQAEDVAVYYCQHSREVPYTFGGGTKVEIKR
notes: as for B1
In the case of B7, in the assay with huZIP12-ECD-GST [1], binding was characterised by a dissociation constant (Kd) of 1.3 nM, the koff is 3.45e-05 s⁻¹ and the kon is 26400 M⁻¹ s⁻¹.

B8: H2_K65P_VL-par (antibody, V domains shown)
VH: QVQLVESGGGVVQPGRSLRLSCAASGFTFSDYGMHWVRQAPGKGLEWVAYISSGGTTIYYADTVPGRFTISRDNSKNTLYLQMNSLRAEDTAVYYCARWTNLYAMDYWGQGTTVTVSS
VL: DIVLTQSPDSLAVSLGERATINCRASKSVSTSGYSYMHWYQQKPGQPPKFLIYLASNLESGVPDRFSGSGSGTDFTLTISSLQAEDVAVYYCQHSREVPYTFGGGTKVEIKR
notes: as for B1
In the assay with huZIP12-ECD-GST [1], B8 returned a Kd of 1.08 nM, a dissociation rate constant (koff) of 2.92e-05 s⁻¹ and a kon of 27000 M⁻¹ s⁻¹.

B9: H2_K65P_L2 (antibody, V domains shown)
VH: QVQLVESGGGVVQPGRSLRLSCAASGFTFSDYGMHWVRQAPGKGLEWVAYISSGGTTIYYADTVPGRFTISRDNSKNTLYLQMNSLRAEDTAVYYCARWTNLYAMDYWGQGTTVTVSS
VL: DIVLTQSPDSLAVSLGERATINCRASKSVSTSGYSYMHWYQQKPGQPPKFLIYLASNKESGVPDRFSGSGSGTDFTLTISSLQAEDVAVYYCQHSREVPYTFGGGTKVEIKR
notes: as for B1
On to B9, for which, in the assay with huZIP12-ECD-GST [1], binding was characterised by a dissociation constant (Kd) of 1.13 nM, the koff stood at 2.62e-05 s⁻¹ and the kon worked out at 23200 M⁻¹ s⁻¹.

B10: H2_G66Q_VL-par (antibody, V domains shown)
VH: QVQLVESGGGVVQPGRSLRLSCAASGFTFSDYGMHWVRQAPGKGLEWVAYISSGGTTIYYADTVKQRFTISRDNSKNTLYLQMNSLRAEDTAVYYCARWTNLYAMDYWGQGTTVTVSS
VL: DIVLTQSPDSLAVSLGERATINCRASKSVSTSGYSYMHWYQQKPGQPPKFLIYLASNLESGVPDRFSGSGSGTDFTLTISSLQAEDVAVYYCQHSREVPYTFGGGTKVEIKR
notes: as for B1
In the assay with huZIP12-ECD-GST [1], B10 yielded a Kd of 1.08 nM, a koff of 3.72e-05 s⁻¹ and a kon of 34400 M⁻¹ s⁻¹. In the assay with huZIP12-ECD-GST [2], this molecule showed a Kd of 0.83 nM, a koff of 2.78e-05 s⁻¹ and a kon of 33600 M⁻¹ s⁻¹.

B11: H2_K65P_L1 (antibody, V domains shown)
VH: QVQLVESGGGVVQPGRSLRLSCAASGFTFSDYGMHWVRQAPGKGLEWVAYISSGGTTIYYADTVPGRFTISRDNSKNTLYLQMNSLRAEDTAVYYCARWTNLYAMDYWGQGTTVTVSS
VL: DIVLTQSPDSLAVSLGERATINCRASKSVSTQGYSYMHWYQQKPGQPPKFLIYLASNLESGVPDRFSGSGSGTDFTLTISSLQAEDVAVYYCQHSREVPYTFGGGTKVEIKR
notes: as for B1
B11: in the assay with huZIP12-ECD-GST [1], the Kd came to 1.07 nM, the koff was found to be 3.08e-05 s⁻¹ and the kon amounted to 28800 M⁻¹ s⁻¹.

B12: H2_T63Y_L2 (antibody, V domains shown)
VH: QVQLVESGGGVVQPGRSLRLSCAASGFTFSDYGMHWVRQAPGKGLEWVAYISSGGTTIYYADYVKGRFTISRDNSKNTLYLQMNSLRAEDTAVYYCARWTNLYAMDYWGQGTTVTVSS
VL: DIVLTQSPDSLAVSLGERATINCRASKSVSTSGYSYMHWYQQKPGQPPKFLIYLASNKESGVPDRFSGSGSGTDFTLTISSLQAEDVAVYYCQHSREVPYTFGGGTKVEIKR
notes: as for B1
Take B12: in the assay with huZIP12-ECD-GST [1], the Kd came out at 1.15 nM, the koff stood at 3.06e-05 s⁻¹ and the kon worked out at 26700 M⁻¹ s⁻¹.

B13: H2_Y60K_L2 (antibody, V domains shown)
VH: QVQLVESGGGVVQPGRSLRLSCAASGFTFSDYGMHWVRQAPGKGLEWVAYISSGGTTIYKADTVKGRFTISRDNSKNTLYLQMNSLRAEDTAVYYCARWTNLYAMDYWGQGTTVTVSS
VL: DIVLTQSPDSLAVSLGERATINCRASKSVSTSGYSYMHWYQQKPGQPPKFLIYLASNKESGVPDRFSGSGSGTDFTLTISSLQAEDVAVYYCQHSREVPYTFGGGTKVEIKR
notes: as for B1
Turning to B13, in the assay with huZIP12-ECD-GST [1], binding was put at a Kd of 1.11 nM, the koff is 4.04e-05 s⁻¹ and the kon was 36500 M⁻¹ s⁻¹.

B14: H2_T57H_L2 (antibody, V domains shown)
VH: QVQLVESGGGVVQPGRSLRLSCAASGFTFSDYGMHWVRQAPGKGLEWVAYISSGGTHIYYADTVKGRFTISRDNSKNTLYLQMNSLRAEDTAVYYCARWTNLYAMDYWGQGTTVTVSS
VL: DIVLTQSPDSLAVSLGERATINCRASKSVSTSGYSYMHWYQQKPGQPPKFLIYLASNKESGVPDRFSGSGSGTDFTLTISSLQAEDVAVYYCQHSREVPYTFGGGTKVEIKR
notes: as for B1
In the assay with huZIP12-ECD-GST [1], B14 showed a Kd of 0.98 nM, a koff of 3.78e-05 s⁻¹ and a kon of 38600 M⁻¹ s⁻¹.

B15: H3_M105P_L2 (antibody, V domains shown)
VH: QVQLVESGGGVVQPGRSLRLSCAASGFTFSDYGMHWVRQAPGKGLEWVAYISSGGTTIYYADTVKGRFTISRDNSKNTLYLQMNSLRAEDTAVYYCARWTNLYAPDYWGQGTTVTVSS
VL: DIVLTQSPDSLAVSLGERATINCRASKSVSTSGYSYMHWYQQKPGQPPKFLIYLASNKESGVPDRFSGSGSGTDFTLTISSLQAEDVAVYYCQHSREVPYTFGGGTKVEIKR
notes: as for B1
With B15, in the assay with huZIP12-ECD-GST [1], the Kd is 1.93 nM, the koff turned out to be 4.14e-05 s⁻¹ and the kon worked out at 21500 M⁻¹ s⁻¹.

B16: H3_M105P_VL-par (antibody, V domains shown)
VH: QVQLVESGGGVVQPGRSLRLSCAASGFTFSDYGMHWVRQAPGKGLEWVAYISSGGTTIYYADTVKGRFTISRDNSKNTLYLQMNSLRAEDTAVYYCARWTNLYAPDYWGQGTTVTVSS
VL: DIVLTQSPDSLAVSLGERATINCRASKSVSTSGYSYMHWYQQKPGQPPKFLIYLASNLESGVPDRFSGSGSGTDFTLTISSLQAEDVAVYYCQHSREVPYTFGGGTKVEIKR
notes: as for B1
Regarding B16, in the assay with huZIP12-ECD-GST [1], the Kd turned out to be 1.63 nM, the koff turned out to be 4.03e-05 s⁻¹ and the on-rate (kon) is 24700 M⁻¹ s⁻¹.
